# In patent US8097254:
# Key:
# hen egg lysozyme (hen) = hen egg lysozyme (hen) (UniProt P00698); assay: 125I-labelled (Iodogen) scFv loaded on antigen column, counting of flow-through and eluate
# [1] = target: T1, recombinant ED-B domain of fibronectin (UniProt P02751 1266-1356, biotinylated (biotin disulfide N-hydroxysuccinimide ester) in ELISA and ECL competition; Cy5 at the N-terminal extremity in the band-shift analysis); assay: SPR (BIAcore)
# T1 construct: domain: ED-B; Recombinant fragment made as in Carnemolla et al. 1996; also called biotinylated ED-B; ED-B-biotin
# T1 sequence (P02751 1266-1356 limits assumed): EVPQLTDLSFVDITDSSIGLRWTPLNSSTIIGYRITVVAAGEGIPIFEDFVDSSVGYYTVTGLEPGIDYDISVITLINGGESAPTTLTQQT
# [2] = target: T1, recombinant ED-B domain of fibronectin; assay: SPR (BIAcore), purified scFv
# [3] = target: T1, recombinant ED-B domain of fibronectin; assay: competition of scFv-(ED-B-biotin) complex with excess unbiotinylated ED-B, electrochemiluminescent detection (Origen)
# [4] = target: T1, recombinant ED-B domain of fibronectin; assay: Kd = koff/kon, koff from ECL competition, kon from BIAcore
# Chain of hen egg lysozyme (hen) (P00698 19-147): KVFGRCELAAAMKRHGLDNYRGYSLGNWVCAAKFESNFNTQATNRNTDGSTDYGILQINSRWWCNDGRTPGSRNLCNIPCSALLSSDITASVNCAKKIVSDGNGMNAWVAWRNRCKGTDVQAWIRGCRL
immunoreactivity (hen egg lysozyme (hen)) [%],koff [1] [s⁻¹],kon [2] [M⁻¹ s⁻¹],koff [3] [s⁻¹],Kd [4] [nM],Molecule
> 80,–,–,–,–,scFv(D1.3)
–,9.6e-05,110000,6e-06,0.054,"scFv L19 (high-affinity anti-ED-B human scFv antibody fragment) (scFv, in some assays labelled: iodine-125 (Iodogen, or via N-succinimidyl-3-(125I)-benzoate), astatine-211 via m-MeATE, Cy5-NHS, tin (IV) chlorin e6) EVQLLESGGGLVQPGGSLRLSCAASGFTFSSFSMSWVRQAPGKGLEWVSSISGSSGTTYYADSVKGRFTISRDNSKNTLYLQMNSLRAEDTAVYYCAKPFPYFDYWGQGTLVTVSSGDGSSGGSGGASTGEIVLTQSPGTLSLSPGERATLSCRASQSVSSSYLAWYQQKPGQAPRLLIYYASSRATGIPDRFSGSGSGTDFTLTISRLEPEDFAVYYCQQTGRIPPTFGQGTKVEIKDDDSDDDYKDDDDKHHHHHH"
